T1: human IL-23 receptor ECD (human, UniProt Q5VWK5 24-355)
T1 construct: extracellular domain
T1 sequence (looked up): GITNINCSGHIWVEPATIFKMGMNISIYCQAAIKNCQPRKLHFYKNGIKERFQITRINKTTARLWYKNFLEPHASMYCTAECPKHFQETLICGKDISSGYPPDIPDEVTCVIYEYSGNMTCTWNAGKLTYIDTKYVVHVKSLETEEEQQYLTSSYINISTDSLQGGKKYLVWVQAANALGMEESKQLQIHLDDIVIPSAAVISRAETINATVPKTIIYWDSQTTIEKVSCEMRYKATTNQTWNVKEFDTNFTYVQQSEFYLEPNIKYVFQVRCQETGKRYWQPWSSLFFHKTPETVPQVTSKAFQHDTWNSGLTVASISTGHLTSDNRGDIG

T2: cyno CD3 (cyno, UniProt Q95LI5 22-117)
T2 sequence (looked up): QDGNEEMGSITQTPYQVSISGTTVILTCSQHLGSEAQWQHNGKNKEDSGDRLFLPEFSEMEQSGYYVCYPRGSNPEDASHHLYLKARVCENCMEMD


How the values were obtained:
[1] = biological target: T3, human IL23R IL12Rbeta 1 heterodimer on CHO-K1 cells (human, UniProt Q5VWK5 24-629; P42701 24-662); experiment: cell-based or functional assay
[2] = biological target: T4, human CD3 gamma-epsilon single-chain (human, UniProt P09693 23-103; P07766 23-118); experiment: SPR, target immobilised by amine coupling, binder as analyte
T4 construct: Recombinant protein immobilised on the SPR chip

[3] = biological target: T1, human IL-23 receptor ECD; experiment: as above
[4] = biological target: T5, human serum albumin (human, UniProt P02768 25-609); experiment: as above
T5 construct: also called HSA

[5] = biological target: T2, cyno CD3; experiment: as above
[6] = biological target: T3, human IL23R IL12Rbeta 1 heterodimer on …; experiment: cell-based or functional assay; remark: listed apart in the source

Row | Binder | EC50 of T-cell activation (NFAT reporter, with HSA), 5 h [1] [nM] | EC50 of T-cell activation (NFAT reporter, with HSA), 30 h [1] [nM] | Kd [2] [nM] | Kd [3] [nM] | Kd [4] [nM] | Kd [5] [nM] | NFAT assay EC50 (T-cell activation, 5 h) [6] [nM]
1 | PRO746 (MATCH) (other, Hetero-dimeric MATCH, anti-parallel, two anti-IL23R scFv modules on a CD3/HSA core; interchain disulfide in the anti-CD3 VL/VH interface; charged core linkers; also called MATCH-4 anti-TAA2xCD3xHSA; heterodimeric MATCH) chain 1: DIQMTQSPSSLSASVGDRVTITCQASENIYSFLAWYQQKPGKAPKLLIYSASKLAAGVPSRFSGSGSGTDFTLTISSLQPEDFATYYCQQTNRYSNPDIYNVFGTGTKVTVLGGGGGSGGGGSGGGGSGGGGSEVQLVESGGGLVQPGGSLRLSCAASGIDFNSNYYMCWVRQAPGKGLEWIGCIYVGSHVNTYYANWAKGRFTISRDNSKNTVYLQMNSLRAEDTAVYYCATSGSSVLYFKFWGQGTLVTVSSGGGGSGGGGSDIQMTQSPSSLSASVGDRVTITCQSSQSVFSNNYLAWFQQKPGQSPKRLIYSASTLASGVPSRFSGSGSGTDFTLTISSLQPEDFATYYCLGSYACSSADCYVFGCGTKVTVLGEPEPEPEPEPEPEPDIQMTQSPSSLSASVGDRVTITCQSSESVYSNNQLSWYQQKPGQPPKLLIYDASDLASGVPSRFSGSGSGTDFTLTISSLQPEDFATYYCAGGFSSSSDTAFGGGTKLTVLG chain 2: DIQMTQSPSSLSASVGDRVTITCQASENIYSFLAWYQQKPGKAPKLLIYSASKLAAGVPSRFSGSGSGTDFTLTISSLQPEDFATYYCQQTNRYSNPDIYNVFGTGTKVTVLGGGGGSGGGGSGGGGSGGGGSEVQLVESGGGLVQPGGSLRLSCAASGIDFNSNYYMCWVRQAPGKGLEWIGCIYVGSHVNTYYANWAKGRFTISRDNSKNTVYLQMNSLRAEDTAVYYCATSGSSVLYFKFWGQGTLVTVSSGGGGSGGGGSEVQLVESGGGLVQPGGSLRLSCAASGFSLSSNAMGWVRQAPGKGLEYIGIISVGGFTYYASWAKGRFTISRDNSKNTVYLQMNSLRAEDTATYFCARDRHGGDSSGAFYLWGQGTLVTVSSKPKPKPKPKPKPKPEVQLVESGGGLVQPGGSLRLSCAASGFSLSSYDMSWVRQAPGKCLAWIGASYASGPTYYASWAKGRFTISRDNSKNTVYLQMNSLRAEDTATYFCARGGWTGTSHSNIWGQGTLVTVSS | 266000 | 102000 | 3.52 | 0.0249 | 0.141 | 3.19 | 0.19
2 | PRO734 (other, Hetero-dimeric MATCH, anti-parallel; diS in anti-CD3 domain, 11 aa GS-linker) chain 1: DIQMTQSPSSLSASVGDRVTITCQASENIYSFLAWYQQKPGKAPKLLIYSASKLAAGVPSRFSGSGSGTDFTLTISSLQPEDFATYYCQQTNRYSNPDIYNVFGTGTKVTVLGGGGGSGGGGSGGGGSGGGGSEVQLVESGGGLVQPGGSLRLSCAASGIDFNSNYYMCWVRQAPGKGLEWIGCIYVGSHVNTYYANWAKGRFTISRDNSKNTVYLQMNSLRAEDTAVYYCATSGSSVLYFKFWGQGTLVTVSSGGGGSGGGGSDIQMTQSPSSLSASVGDRVTITCQSSQSVFSNNYLAWFQQKPGQSPKRLIYSASTLASGVPSRFSGSGSGTDFTLTISSLQPEDFATYYCLGSYACSSADCYVFGCGTKVTVLGSGGGGSGGGGSDIQMTQSPSSLSASVGDRVTITCQSSESVYSNNQLSWYQQKPGQPPKLLIYDASDLASGVPSRFSGSGSGTDFTLTISSLQPEDFATYYCAGGFSSSSDTAFGGGTKLTVLG chain 2: DIQMTQSPSSLSASVGDRVTITCQASENIYSFLAWYQQKPGKAPKLLIYSASKLAAGVPSRFSGSGSGTDFTLTISSLQPEDFATYYCQQTNRYSNPDIYNVFGTGTKVTVLGGGGGSGGGGSGGGGSGGGGSEVQLVESGGGLVQPGGSLRLSCAASGIDFNSNYYMCWVRQAPGKGLEWIGCIYVGSHVNTYYANWAKGRFTISRDNSKNTVYLQMNSLRAEDTAVYYCATSGSSVLYFKFWGQGTLVTVSSGGGGSGGGGSEVQLVESGGGLVQPGGSLRLSCAASGFSLSSNAMGWVRQAPGKGLEYIGIISVGGFTYYASWAKGRFTISRDNSKNTVYLQMNSLRAEDTATYFCARDRHGGDSSGAFYLWGQGTLVTVSSSGGGGSGGGGSEVQLVESGGGLVQPGGSLRLSCAASGFSLSSYDMSWVRQAPGKCLAWIGASYASGPTYYASWAKGRFTISRDNSKNTVYLQMNSLRAEDTATYFCARGGWTGTSHSNIWGQGTLVTVSS | – | – | 11.9 | 0.036 | 0.482 | 10.2 | 46.8
3 | PRO738 (other, Hetero-dimeric MATCH, anti-parallel; diS in anti-CD3 domain, 15 aa GS-linker) chain 1: DIQMTQSPSSLSASVGDRVTITCQASENIYSFLAWYQQKPGKAPKLLIYSASKLAAGVPSRFSGSGSGTDFTLTISSLQPEDFATYYCQQTNRYSNPDIYNVFGTGTKVTVLGGGGGSGGGGSGGGGSGGGGSEVQLVESGGGLVQPGGSLRLSCAASGIDFNSNYYMCWVRQAPGKGLEWIGCIYVGSHVNTYYANWAKGRFTISRDNSKNTVYLQMNSLRAEDTAVYYCATSGSSVLYFKFWGQGTLVTVSSGGGGSGGGGSDIQMTQSPSSLSASVGDRVTITCQSSQSVFSNNYLAWFQQKPGQSPKRLIYSASTLASGVPSRFSGSGSGTDFTLTISSLQPEDFATYYCLGSYACSSADCYVFGCGTKVTVLGGGGGSGGGGSGGGGSDIQMTQSPSSLSASVGDRVTITCQSSESVYSNNQLSWYQQKPGQPPKLLIYDASDLASGVPSRFSGSGSGTDFTLTISSLQPEDFATYYCAGGFSSSSDTAFGGGTKLTVLG chain 2: DIQMTQSPSSLSASVGDRVTITCQASENIYSFLAWYQQKPGKAPKLLIYSASKLAAGVPSRFSGSGSGTDFTLTISSLQPEDFATYYCQQTNRYSNPDIYNVFGTGTKVTVLGGGGGSGGGGSGGGGSGGGGSEVQLVESGGGLVQPGGSLRLSCAASGIDFNSNYYMCWVRQAPGKGLEWIGCIYVGSHVNTYYANWAKGRFTISRDNSKNTVYLQMNSLRAEDTAVYYCATSGSSVLYFKFWGQGTLVTVSSGGGGSGGGGSEVQLVESGGGLVQPGGSLRLSCAASGFSLSSNAMGWVRQAPGKGLEYIGIISVGGFTYYASWAKGRFTISRDNSKNTVYLQMNSLRAEDTATYFCARDRHGGDSSGAFYLWGQGTLVTVSSGGGGSGGGGSGGGGSEVQLVESGGGLVQPGGSLRLSCAASGFSLSSYDMSWVRQAPGKCLAWIGASYASGPTYYASWAKGRFTISRDNSKNTVYLQMNSLRAEDTATYFCARGGWTGTSHSNIWGQGTLVTVSS | – | – | 10.1 | 0.0337 | 0.303 | 8.48 | 0.423
